Measured values reported in patent US11497796B2, “Agents directed against a cis RGMa/neogenin interaction or lipid rafts and use of the same in methods of treatment” (UNIVERSITY HEALTH NETWORK, priority 2013, dated 2022).

B1: 4Ig: four immunoglobulin-like domains of Neogenin, amino acids 1 to 383 of Accession No. AAC59662 (SEQ ID NO:1) (protein, listed as Gallus gallus)
chain: RSGPRSPLTGSVVRTFTPFYFLVEPMDILSVRGASVIMNCSSYCETPPKIEWKKDGTLLNLVSDDRRQLLPDGSLLINSVVHSKHNKPDEGYYQCVATVESLGSIVSRTAKLTVAGLPRFTSQPELSSVYKGNSAILNCEVNVDLAPFVRWEQDRQPLSLDDRVFKLPSGALLIGNATDTDGGFYRCVIESGGTPKYSEEAELKILPDPEEPQSLVFVRQPSSLTKVTGQNAVFPCVAGGFPTPYVRWTKNGEELITEDSERFALRAGGSLLISDVTEEDVGTYTCIADNENETIEAQAELAVQVPPEFLKRPANIYAHESMDIVFECEVTGKPTPTVKWVKNGDVVIPSDYFKIVKEHNLQVLGLVKSDEGFYQCIAENDVGNAQAGAQLIILDLDVAIPTLPPTSLTSATNDHLAPATTGPLPTAPRDVVATLVSTRFIRLTWRTPVSDPQGDNLTYSIFYTKEGINRERVENTSRPGETQVMIQNLMPETVYVFRVVAQNKHGHGESSAPLKVATQPEVQLPGPAPNIRAYAGSPTSVTVTWETPLSGNGEIQNYKLYYMEKGQDSEQDVDVAGLSYTITGLKKYTEYSFRVVAYNKHGPGVSTQDVVVRTLSDVPSAAPQNLTLEARNSKSIMLHWQPPPAGTHSGQITGYKIRYRKVSRKSDVTESVGGTQLFQLIEGLERGTEYNFRIAAMTVNGTGPATDWVSAETFESDLDESRVPEVPSSLHVRPLVTSIVVSWTPPENQNIVVRGYAIGYGIGSPHAQTIKVDYKQRYYTIENLDPSSHYVITLKAFNNVGEGIPLYESAVTRPHSDTSEVDLFVINAPYTPVPDPSPMMPPVGVQASILSHDTIRITWADNSLPKNQKITDARYYTVRWKTNIPANTKYKTANATTLSYLVTGLKPNTLYEFSVMVTKGRRSSTWSMTAHGTTFELVPTSPPKDVTVVSKEGKPRTIIVNWQPPSEANGKITGYIIYYSTDVNAEIHDWVIEPVVGNRLTHQIQELTLDTPYYFKIQARNSKGMGPMSEAVQFRTPKAESSDKMPNDQASGSAGKGSRPVDVGPDYKPPLSGSNSPHGSPTSPLDSNMLLVIIVSVGVITIVIVVIVAVFCTRRTTSHQKKKRAACKSVNGSHKYKGNSKDVKPPDLWIHHERLELKPIDKSPDPNPIMTDTPIPRNSQDITPVDNSMDSNIHQRRNSYRGHESEDSMSTLAGRRGMRPKMMMPFDSQPPQPVISAHPIHSLDNPHHHFHSGSLASPTRSYLHHQVSPWPVGTSMSHSDRANSTESVRNTPSSDTMPASSSQPCADHQDPDSSSGAYLGSAQEEDAAQSLPTAHVRPSHPLKSFAVPAVPAAGSAYDPTLPSTPLLTQQAPSHPVHSVKTASIGTLGRTRPPMPVVVPSAPDVQETTRMLEDSESSYEPDELTKEMAHLEGLMKDLNAITTA
modifications: Neogenin - Accession No. AAC59662

Columns and labels:
4Ig-domain of DCC = assay: AP binding assay on coated DCC-4Ig; details: closest Neogenin homologue, specificity control
Description: (A) Different RGMa-AP proteins were incubated on wells coated with the 4Ig 6FNIII or BSA. […] Data were average±SEM (n=3 independent experiments), *p<0.005. (B) Quantification of a binding assay where 4Ig-AP and 6FNIII-AP proteins were assayed on wells coated with proteins from different RGMa regions. […] Thus, two N-RGMa fragments were identified (N-Raft and N-RGMa77-113) that bound the 4Ig and 6FNIII domains in Neogenin, respectively. C-RGMa proteins and full length RGMa only bound 6FNIII. Data were average±SEM (n=3 independent experiments), *p<0.005. […] Quantification of a binding assay where N-RGMa-AP was assayed on wells coated with proteins DCC-4Ig and Neogenin-4Ig. In this experiment Neogenin-4Ig but not DCC-4Ig interacted with N-Raft-AP. Data were average±SEM (n=4 independent experiments), *p<0.005. (D) Cis-interaction between the 4Ig domain of Neogenin and N-Raft is required for localization of Neogenin in lipid rafts. HEK-293 cells were transfected with Neogenin and RGMa constructs. BMP2 (100 nM) was added to the medium 1 hour before cells were collected. Western blotting was performed following lipid raft fractionation. Flotillin was used as a marker for lipid raft fractions, whereas the transferrin receptor (TfR) was used as a marker for heavy membrane-fractions. Every experiment was repeated twice. […]

brain after stroke = assay: Cerebral focal ischemia model (MCA clot occlusion); type: in vivo, rat; details: daily injections
Description: In all experiments, female Sprague-Dawley rats weighing 200-250 g were used. Briefly, focal cerebral ischemia was induced by injection of a preformed clot into the MCA. The rats were initially anesthetized with 3.0% isoflurane and then maintained with 1.5% isoflurane in a mixture of 30:70 O2 and […] with a face mask during surgery. Body temperature was maintained at 37° C. in the normothermic rats with a heating pad for the duration of surgery and in the immediate postoperative period until the animal was fully recovered from anesthesia.
A 1.5-cm longitudinal incision was made in the midline of the ventral cervical skin. The right common carotid artery (CCA), right internal carotid artery (ICA), and right external carotid artery (ECA) were exposed. The distal portion of the ECA was ligated and cut. A modified polyethylene-10 catheter, filled with bovine thrombin (Thrombostat, TM Warner-Lambert Co.), was introduced into the lumen of the right ECA via a small puncture. Ten micro liters of blood was withdrawn into the catheter and retained for 15 minutes to allow formation of a clot. […] After returning to their cage, animals were monitored for normal recovery.
The infarct volume was expressed as a percentage of the total volume from the ipsilateral hemisphere. Brain edema was determined by calculating the volume difference between the 2 hemispheres and dividing by the volume of the left hemisphere.
Briefly, 7 days after MCA occlusion the anesthetized rats were killed. […] The images were analyzed and the determination of infarct volume and edema was blinded. The infarct volume was calculated using the following formula: Infarct volume=[left hemisphere volume−(the right hemisphere volume−measured infarct volume)]/left hemisphere volume.
Brain swelling was determined using the following formula: Swelling (edema)=(right hemisphere volume−left hemisphere volume)/left hemisphere volume. […]
Briefly, neurological deficits were determined using a modified Bederson's scoring system. […] Mortality was also recorded. […]

retinal whole mounts = assay: Oxygen Glucose Deprivation (OGD) in retinal whole mounts, PI staining; type: cell-based; details: OGD in presence of 4Ig
Description: Specifically, retinal whole mounts were subjected to OGD for 1 hour. After ischemia, whole mounts were incubated for 24 hours and dead cells were identified using propidium iodide (PI) staining.
To determine whether Neogenin required lipid raft association to induce cell death, OGD was performed on retinal whole mounts in the presence of 4Ig, which as described above, prevented Neogenin localization into lipid rafts.

Molecule | interaction with the 4Ig-domain of DCC (4Ig-domain of DCC) | brain edema compared to control (brain after stroke) | infarct volume compared to control (brain after stroke) | behavioral deficits compared to control (brain after stroke; Bederson test) | reduction of the number of dead neurons compared to controls (retinal whole mounts)
N-Raft: peptide spanning amino acids 28-73 of RGMa (SEQ ID NO:2) (SPCKILKCNSEFWAATSGSHHLGAEETPEFCTALRAYAHCTRRTAR; N-Raft - amino acids 28-73 of RGMa) | No significant interaction | – | – | – | –
B1 | – | significantly reduced | significantly reduced | significantly reduced | two-fold
